Reference: PMC9961634

How the values were obtained:
[1] = target: Beta vulgaris ssp. vulgaris phytoglobin type 1.2 (BvPgb1.2) (Beta vulgaris spp. vulgaris); test: SEC; analytical size exclusion chromatography of the purified protein samples; conditions not given (ref. 23)
[2] = target: Beta vulgaris ssp. vulgaris phytoglobin type 1.2 (BvPgb1.2) (Beta vulgaris spp. vulgaris); test: NMR 15N relaxation (rotational correlation time from R2/R1, ROTDIF, compared with HYDRONMR values for monomeric and dimeric structures); CN-bound BvPgb1.2, 1 mM protein in 50 mM MOPS pH 7.4, 8% D2O, 298 K, 14.1 T; monomer to dimer
[3] = target: Hb1 (Oryza sativa) (UniProt O04986); conditions: cited from earlier work

Row | Substance | stoichiometry N [1] | stoichiometry N [2] | Kd [3] [µM]
1 | Beta vulgaris ssp. vulgaris phytoglobin type 1.2 (BvPgb1.2) (natural protein) | 2 | 2 | –
2 | Hb1 (from UniProt O04986) | – | – | 86
